The values below come from US20150038682A1.

This assay concerns the target death receptor 4 (DR4) on Ramos cells (human) (UniProt O00220). Nature of the assay: cell-based or functional assay.

B1: HuYON007 IgG1 (antibody, V domains shown)
VH: QVTLRESGPALVKPTQTLTLTCTFSGFSLSTSGMGVSWIRQPPGKALEWLAHIYWDDDKRYNPSLKSRLTISKDTSKNQVVLTMTNMDPVDTATYYCTRRGEYGNFDYWGQGTLVTVSS
VL: QTVVTQEPSFSVSPGGTVTLTCRSSSGAVTTSNFANWVQQTPGQAPRGLIGGTNNRAPGVPDRFSGSLLGNKAALTITGAQADDESDYYCALWYSNHWVFGGGTKLTVL
On to B1, for which the viability of Ramos cells at 6.2 ng/ml antibody was found to be 100% and the viability of Ramos cells at 111 ng/ml antibody (alamar Blue, overnight) was determined as 78.3%.
